Laboratory results published in patent publication US9926369B2, “Methods for treating hepatocellular cancer by administering an anti-Ang-2 antibody” (Regeneron Pharmaceuticals, Inc., priority 2009, dated 2018).

T1: hAng-1-WT binding to hTie-2-mFc (Homo sapiens, UniProt Q15389)
T1 sequence (Q15389 20-498 limits assumed): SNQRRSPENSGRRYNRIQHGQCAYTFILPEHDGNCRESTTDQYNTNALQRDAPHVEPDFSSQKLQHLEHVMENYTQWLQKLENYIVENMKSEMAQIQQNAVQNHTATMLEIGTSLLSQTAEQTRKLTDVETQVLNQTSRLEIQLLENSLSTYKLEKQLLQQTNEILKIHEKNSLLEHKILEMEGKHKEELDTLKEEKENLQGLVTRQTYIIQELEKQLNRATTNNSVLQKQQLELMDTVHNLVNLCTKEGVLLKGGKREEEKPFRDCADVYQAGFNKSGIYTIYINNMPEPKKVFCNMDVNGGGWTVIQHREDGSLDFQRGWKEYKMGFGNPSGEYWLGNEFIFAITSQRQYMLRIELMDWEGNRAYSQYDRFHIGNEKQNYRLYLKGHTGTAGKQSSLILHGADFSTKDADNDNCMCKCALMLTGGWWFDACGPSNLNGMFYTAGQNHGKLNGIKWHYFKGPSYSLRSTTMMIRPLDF

T2: hAng-2-WT binding to hTie-2-mFc (Homo sapiens, UniProt O15123)
T2 sequence (O15123 19-496): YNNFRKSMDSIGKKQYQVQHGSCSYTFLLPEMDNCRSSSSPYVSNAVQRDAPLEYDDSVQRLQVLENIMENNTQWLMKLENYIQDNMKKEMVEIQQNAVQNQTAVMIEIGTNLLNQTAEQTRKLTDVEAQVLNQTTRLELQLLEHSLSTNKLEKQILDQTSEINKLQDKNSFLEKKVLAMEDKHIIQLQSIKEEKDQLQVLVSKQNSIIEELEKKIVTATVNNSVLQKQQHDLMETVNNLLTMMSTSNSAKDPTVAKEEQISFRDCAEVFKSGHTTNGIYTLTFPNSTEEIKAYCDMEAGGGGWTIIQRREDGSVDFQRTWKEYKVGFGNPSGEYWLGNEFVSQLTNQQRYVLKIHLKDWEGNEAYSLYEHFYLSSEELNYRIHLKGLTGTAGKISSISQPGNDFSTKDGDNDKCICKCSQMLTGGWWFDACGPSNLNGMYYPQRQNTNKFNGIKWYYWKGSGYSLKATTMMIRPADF


What was measured:
[1] = test system: Tie-2 phosphorylation (Ang-2-mediated) in HUVECs; assay: Inhibition of Ang-2-mediated Tie-2 phosphorylation in FOXO1-adenovirus infected HUVECs; format: cell-based, human; conditions: antibody 0.5 μg/ml
Protocol: Further, the inventors have shown that infection of HUVECs with an adenovirus encoding FOXO1 results in expression and secretion of Ang-2, followed by activation of Tie-2 phosphorylation (Daly et al. 2006 PNAS 103:15491).
Anti-Ang-2 antibodies were tested for their ability to inhibit Tie-2 phosphorylation. Briefly, 7×10^5 HUVECs (Vec Technologies, Rensselaer, N.Y.) were plated in 6 cm cell culture dishes in 3.5 ml of MCDB131 Complete medium (Vec Technologies, Rensselaer, N.Y.). The following day, the cells were washed with Opti-MEM (Invitrogen Corp., Carlsbad, Calif.) and fed with 2 ml of Opti-MEM. […] Cells were then washed with MCDB131 and fed with 2 ml of MCDB131 containing anti-Ang-2 antibodies at a concentration of 0.5 μg/ml. At twenty hours post infection, cells were lysed and subjected to Tie-2 immunoprecipitation as described by Daly et al., Proc. Natl. Acad. Sci. USA 103:15491-15496 (2006). Immunoglobulin was collected on protein A/G beads (Santa Cruz Biotechnology, Santa Cruz, Calif.) for one hour. Beads were washed with cold lysis buffer and resuspended in SDS sample buffer for analysis by western blot with antibodies specific for phosphotyrosine (Millipore, Billerica, Mass.) or Tie-2. Signals were detected using HRP-conjugated secondary antibodies and ECL reagents (GE Healthcare, Piscataway, N.J.). X-Ray films were scanned and the phospho-Tie-2 and Tie-2 signals were quantified using ImageJ software. The phospho-Tie-2/Tie-2 ratios were used to determine the % inhibition for each anti-Ang-2 antibody (i.e. Percent inhibition=Reduction in phospho-Tie-2/Tie-2 as compared to control).

[2] = test system: retinal superficial vasculature; assay: Retinal vascularization in wild-type mice; format: in vivo; conditions: 12.5 mg/kg subcutaneous at P2, retina at P5
Protocol: (§1) In one set of experiments wild-type mice were used. In another set, mice expressing a human Ang-2 in place of the wild-type mouse Ang-2 (designated “hu-Ang-2 mice”) were used. The mice at two days of age (P2) were injected subcutaneously with either control Fc or with selected anti-Ang-2 antibodies at a dose of 12.5 mg/kg. Three days later (at P5), pups were euthanized, and eyeballs were enucleated and fixed in 4% PFA for 30 minutes. Retinas were dissected, stained with Griffonia simplicifolia lectin-1 for 3 hours or overnight at 4° C. to visualize the vasculature, and flat-mounted on microscope slides. Images were taken using a Nikon Eclipse 80i microscope camera and analyzed using Adobe Photoshop CS3, Fovea 4.0, and Scion 1.63 software.
(§2) Areas of the retina covered with superficial vasculature were measured and used as a readout of antibody activity. The reduction in the size of the vascular areas in mice treated with antibody compared to Fc-treated controls is presented in Table 34. The percent reduction in vascular area reflects the anti-angiogenic potency of the antibody. (N/D=not determined)

[3] = test system: retinal superficial vasculature; assay: Retinal vascularization in hu-Ang-2 mice; format: in vivo; conditions: 12.5 mg/kg subcutaneous at P2, retina at P5
Protocol: as §1, §2

[4] = test system: PC3 (Human Prostate Cancer Cell Line) tumors; assay: PC3 mouse tumor model; format: in vivo, NCr nude mice; conditions: PC3, 10 mg/kg intraperitoneal twice per week
Protocol: Briefly, 5×10^6 PC3 cells in 100 μl of growth factor-reduced Matrigel (BD Biosciences) were injected subcutaneously into the flanks of 6-8 week old male NCr nude mice (Taconic, Hudson, N.Y.). After tumor volumes reached an average of about 200 mm^3, mice were randomized into groups for treatment. […] Tumor volumes were measured twice per week over the course of the experiment and tumor weights were measured upon excision of tumors at the conclusion of the experiment. Averages (mean+/−standard deviation) of tumor weight and growth were calculated for each treatment group. Percent decrease of tumor weight and growth were calculated from comparison to Fc protein measurements.

[5] = molecular target: T1, hAng-1-WT binding to hTie-2-mFc; assay: Biosensor SPR blocking of hAng-1-WT binding to hTie-2-mFc-ecto surface; format: biochemical; conditions: 10 nM hAng-1-WT
Protocol: In an effort to further assess the ability of selected anti-hAng-2 antibodies to block the binding of Ang-1 to Tie-2, a biosensor surface plasmon resonance experiment was conducted. In this experiment, a human Tie-2 full-length extracellular domain construct (hTie-2-mFc-ecto) was amine-coupled on a BIACORE™ chip to create a receptor coated surface. Selected anti-hAng-2 antibodies and control constructs, at 1 μM (100-fold excess over antigen), were premixed with 10 nM of hAng-1-WT, followed by 60 minutes incubation at 25° C. to allow antibody-antigen binding to reach equilibrium to form equilibrated solutions. The equilibrated solutions were injected over the receptor surfaces at 5 μL/min for 5 minutes at 25° C. Changes in resonance units (RU) due to the binding of the hAng-1-WT to hTie-2-mFc were determined. An irrelevant peptibody construct with no binding to hAng-1 was included in this experiment to establish the 0% blocking baseline, and a human Tie-2-mFc construct was used as a positive control for blocking. The amount of Ang-1 bound to Tie-2 following antibody preincubation, expressed as a percentage of the amount of Ang-1 bound to Tie-2 following negative control preincubation, is shown in Table 20. (A greater amount of Ang-1 binding to Tie-2 signifies a lower degree of antibody blocking).
(§3) The foregoing experiment was repeated using different amounts of Ang-2 blockers and controls. In particular, a human Tie-2 full-length extracellular domain construct (hTie-2-mFc-ecto) was amine-coupled on a BIACORE™ chip to create a receptor-coated surface. Selected anti-hAng-2 antibodies and control constructs (50 or 150 nM) were mixed with hAng-2-WT (25 nM) followed by 60 minutes incubation at 25° C. to allow antibody-antigen binding to reach equilibrium. The equilibrated solutions were injected over the receptor surfaces at 10 μL/min for 5 minutes at 25° C. To evaluate the ability of the selected anti-hAng-2 antibodies to block Ang-1-WT binding to hTie-2, a similar procedure was followed except the antibodies were tested at three concentrations (50, 100 or 1000 nM) and incubated with 10 nM of hAng-1-WT. Changes in resonance units (RU) due to the binding of the Ang-2-WT or hAng-1-WT to hTie-2-mFc were determined. An irrelevant antibody with no binding to either angiopoietin was included in these experiments to establish the 0% blocking baseline, and a human Tie-2-mFc construct was used as a positive control for blocking. Results are summarized in Tables 21 (hAng-1 applied to a hTie-2 surface) and 22 (hAng-2 applied to a hTie-2 surface).

[6] = molecular target: T2, hAng-2-WT binding to hTie-2-mFc; assay: Biosensor SPR blocking of hAng-2-WT binding to hTie-2-mFc-ecto surface; format: biochemical; conditions: 25 nM hAng-2-WT
Protocol: as §3

Row | Molecule | Inhibition of Tie-2 phosphorylation [1] | Inhibition of Tie-2 phosphorylation (in words) [1] | % Reduction in Vascular Area Relative to Fc Control, Wild-Type Mice [2] [%] | % Reduction in Vascular Area Relative to Fc Control, hAng-2 Mice [3] [%] | Avg Tumor Weight ([4]; approximately three weeks, mean ± SD) [g] | Avg Tumor Growth ([4]; mean ± SD) [mm^3] | % Decrease in Tumor Growth ([4]; vs Fc protein) [%] | % Decrease in Tumor Weight ([4]; vs Fc protein) [%] | Percent of Neg. Ctrl Binding (hAng-1 WT) ([5]; 50 nM antibody or control) [%] | Specific Bound RU (hAng-1 WT) ([5]; 50 nM antibody or control) [RU] | Percent of Neg. Ctrl Binding (hAng-1 WT) ([5]; 100 nM antibody or control) [%] | Specific Bound RU (hAng-1 WT) ([5]; 100 nM antibody or control) [RU] | Percent of Neg. Ctrl Binding (hAng-1 WT) ([5]; 1000 nM antibody or control) [%] | Specific Bound RU (hAng-1 WT) ([5]; 1000 nM antibody or control) [RU] | Percent of Neg. Ctrl Binding (hAng-2 WT) ([6]; 50 nM antibody or control) [%] | Specific Bound RU (hAng-2 WT) ([6]; 50 nM antibody or control) [RU] | Percent of Neg. Ctrl Binding (hAng-2 WT) ([6]; 150 nM antibody or control) [%] | Specific Bound RU (hAng-2 WT) ([6]; 150 nM antibody or control) [RU]
1 | H1H690P: anti-Ang-2 antibody, HCVR/LCVR SEQ ID NOs 42/44 (antibody, V domains shown) VH: EVQLVESGGGLVQPGESLRLSCAASGFTFSSYAMSWVRQGPGKGLEWVSSITGSGDTTYYADSVKGRFTISRDNSKNTLYLHMNSLRAEDTAVYYCAKDFLDYSTYLAFDLWGQGTMVTVSS VL: EIVLTQSPATLSLSPGERATLSCRASQSVSSYLTWYQQKPGQAPRLLSYDASNRATGIPARFSGSGSGTDFTLTISSLEPEDFAVYYCQQRSNWPLTFGGGTKVEIK | +++ (75-100%) | Especially robust inhibition | 30.7 | 41.5 | – | – | – | – | – | – | – | – | – | – | – | – | – | –
2 | H1H724N: anti-Ang-2 antibody (724N) cloned onto human IgG1 (antibody, V domains shown) VH: QVQLVESGGGVVQPGRSLRLSCAASGFTLSNYGMHWVRQAPGKGLEWVAVIWHDGSNTYYADSVKGRFTISRDNSKNTLYLQMNSLRAEDTAVYYCTREGLDFWSGYYPNWFDPWGQGTLVTVSS VL: DIQMTQSPSSLSASVGDRVTITCRASQGIRNDLGWYQQKPGKAPKRLIYAASNLQGGVPSRFSGSGSGTEFTLTISSLQPEDFAAYYCLQHNIYPLTFGGGTKVEIK | – | – | 32.2 | 33.2 | 0.55 ± 0.07 | 392 ± 169 | 23 | 17 | – | – | – | – | – | – | – | – | – | –
3 | hTie-2-mFc: chimeric construct consisting of human Tie-2 conjugated to mouse IgG; positive control for blocking (protein) MDSLASLVLCGVSLLLSGTVEGAMDLILINSLPLVSDAETSLTCIASGWRPHEPITIGRDFEALMNQHQDPLEVTQDVTREWAKKVVWKREKASKINGAYFCEGRVRGEAIRIRTMKMRQQASFLPATLTMTVDKGDNVNISFKKVLIKEEDAVIYKNGSFIHSVPRHEVPDILEVHLPHAQPQDAGVYSARYIGGNLFTSAFTRLIVRRCEAQKWGPECNHLCTACMNNGVCHEDTGECICPPGFMGRTCEKACELHTFGRTCKERCSGQEGCKSYVFCLPDPYGCSCATGWKGLQCNEACHPGFYGPDCKLRCSCNNGEMCDRFQGCLCSPGWQGLQCEREGIPRMTPKIVDLPDHIEVNSGKFNPICKASGWPLPTNEEMTLVKPDGTVLHPKDFNHTDHFSVAIFTIHRILPPDSGVWVCSVNTVAGMVEKPFNISVKVLPKPLNAPNVIDTGHNFAVINISSEPYFGDGPIKSKKLLYKPVNHYEAWQHIQVTNEIVTLNYLEPRTEYELCVQLVRRGEGGEGHPGPVRRFTTASIGLPPPRGLNLLPKSQTTLNLTWQPIFPSSEDDFYVEVERRSVQKSDQQNIKVPGNLTSVLLNNLHPREQYVVRARVNTKAQGEWSEDLTAWTLSDILPPQPENIKISNITHSSAVISWTILDGYSISSITIRYKVQGKNEDQHVDVKIKNATIIQYQLKGLEPETAYQVDIFAENNIGSSNPAFSHELVTLPESQAPADLGGGKGPGEPRGPTIKPCPPCKCPAPNLLGGPSVFIFPPKIKDVLMISLSPIVTCVVVDVSEDDPDVQISWFVNNVEVHTAQTQTHREDYNSTLRVVSALPIQHQDWMSGKEFKCKVNNKDLPAPIERTISKPKGSVRAPQVYVLPPPEEEMTKKQVTLTCMVTDFMPEDIYVEWTNNGKTELNYKNTEPVLDSDGSYFMYSKLRVEKKNWVERNSYSCSVVHEGLHNHHTTKSFSRTPGK | – | – | – | – | – | – | – | – | 22 | 70 | 13 | 39 | 0 | −47 | 35 | 97 | 30 | 82
